Assay results from paper PMC4658703 (Science (New York, N.Y.), 2012).
Read-outs that look alike come from different tables or passages of the source.

What was measured:
[1] = target: T1, Human IGF2R domain 11 (wild type) (human, UniProt P11717 1508-1650); assay: SPR
[2] = target: T1, Human IGF2R domain 11 (wild type); assay: SPR; remark: listed apart in the source

T1 sequence (P11717 1508-1650): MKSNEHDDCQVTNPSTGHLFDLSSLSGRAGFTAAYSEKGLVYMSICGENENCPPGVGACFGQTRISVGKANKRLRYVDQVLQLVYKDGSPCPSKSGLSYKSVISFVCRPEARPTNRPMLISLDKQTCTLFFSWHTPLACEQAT

Kd [1]: 63 nM
Kd [2]: 46 nM
B1: Chicken IGF2 (ligand, UniProt P33717 24-91, looked up)
chain: AYGTAETLCGGELVDTLQFVCGDRGFYFSRPVGRNNRRINRGIVEECCFRSCDLALLETYCAKSVKSE
modifications: ends and bridges not checked; also: biotin, site not given here
